“And” between values parts separate entries of the source, which are not always exact repeats. Identical values can stand only once.
What was measured:
[1] = system: toxic myocarditis caused by Adriamycin in rat; experiment: Myocardial pathologic scoring, Adriamycin rat model; format: in vivo, SD rat; conditions: Adriamycin 3.3 mg/kg iv weekly × 4, 5 weeks later
Experimental: (§1) Heart was extirpated after thoracotomy (auricle should be reserved), the heart weight was measured after dried with absorbent paper, ratio of heart weight/body weight calculated; outer diameter of the heart was measured at ½ site of the vertically standing heart; medium part of the left ventricle was crosswise cut open, maximal thickness of free wall of the left ventricle measured; the heart was fixed with 10% formaldehyde, paraffin embedded and HE stained, observation of the myocardial structure carried out under optic microscope, give out pathologic score.
Scoring could be performed between grade 1 and grade 2 or between grade 2 and grade 3, e.g. grade 1.5, grade 2.5 etc. 6.3.3.3 Determination of Hemodynamics Index

[2] = system: toxic myocarditis caused by Adriamycin in rat; experiment: Serum troponin T (cTnT) level, Adriamycin rat model; format: in vivo, SD rat; conditions: Adriamycin 3.3 mg/kg iv once every week × 4, 5 weeks later
Experimental: 2 ml of arterial blood was withdrawn, serum extracted, frozen and stored at −20° C., determination of serum cTnT content was performed with electrochemistry irradiate method submitted to be carried out by Clinical Laboratory of Zhong Shan Hospital.

[3] = system: toxic myocarditis caused by Adriamycin in rat; experiment: Hemodynamics index, Adriamycin rat model; format: in vivo, SD rat; conditions: 5 weeks later
Experimental: (§2) rhNRG-1 β was injected into the tail vein within 24 hours after the first injection of Adriamycin. During the experiment, animal survival was dynamically monitored, heart function indexes (maximal rate of pressure increase within left ventricle, […], maximal rate of pressure decrease within left ventricle, −dp/dt, systolic end pressure of left ventricle LVPmax, diastolic end pressure of left ventricle LVPmin) were monitored at the 5th week. Section was made from the heart tissue and pathological changes examined.
Hemodynamics index such as carotid artery pressure, intra-ventricular pressure. dp/dt was measured with six lead physiology recorder. Major procedure: separate the right carotid artery, ligate its distal end and block its proximal end with arterial clamps, 20 G arteriovenous indwelling needle was inserted into the carotid artery, took out the medal stylet, loosened the artery clamps, push the plastic trocar further into appropriate depth, indwelled for 10 minutes, observed the wave style recorded by the physiology recorder, after it was stable, then recorded the carotid artery pressure and push the trocar further into the left ventricle, kept in place for 15 minutes, after it was stable, then recorded the dp/dt, −dp/dt, LVPmax and LVPmin.

[4] = system: toxic myocarditis caused by Adriamycin in rat; experiment: Heart size (heart weight/body weight, wall thickness), Adriamycin rat model; format: in vivo, SD rat; conditions: Adriamycin 3.3 mg/kg iv once every week × 4, 5 weeks later
Experimental: as §1

[5] = system: toxic myocarditis caused by Adriamycin in rat; experiment: Survival rate, Adriamycin caused toxic myocarditis rat model; format: in vivo, SD rat; conditions: Adriamycin 3.3 mg/kg iv once every week × 4, 5 weeks later
Experimental: rhNRG-1β was injected into the tail vein within 24 hours after the first injection of Adriamycin, the injection of rhNRG-1 β was carried out once daily for 10 days. Dosage was adjusted according to the body weight, volume of the drug administered was 0.2 ml/100 g.
Based on the <<Guidance Principle of New Drug Preclinical Experiment>>, 3.3 mg/kg of Adriamycin was injected into the tail vein, once per week for consecutive 4 injections, establishing Adriamycin caused toxic myocarditis rat model.
as §2
Situation of survival was recorded weekly and the survival rate of the various experimental groups was calculated. Survival rate (%)=survival animal number/number of experimental animals×100.

Rhesus = Rhesus long-term toxicity study, 3 weeks iv plus 3 weeks convalescence; conditions: for heart rate in conscious animals (electrocardiography): every drug taken group
[6] = rat, Adriamycin 3.3 mg/kg iv once every week × 4
[7] = survived rat, Adriamycin 3.3 mg/kg iv weekly × 4

## COc1cccc2c1C(=O)c1c(O)c3c(c(O)c1C2=O)C[C@@](O)(C(=O)CO)C[C@@H]3O[C@H]1C[C@H](N)[C@H](O)[C@H](C)O1 [Adriamycin, reference compound]
[1]
  relative morbidity rate: 100%
[2]
  cTnT: 0.2 ng/mL and 0.205 ± 0.072 ng/mL
[3]; [6]
  LVPmax: 106.1 ± 21.2 mmHg
  dp/dt: 2674 ± 446 mmHg/s
[3]; rat, Adriamycin 3.3 mg/kg iv once every week × 4, in mmHg
  LVPmin: −10.0 ± 4.7
[3]; rat, Adriamycin 3.3 mg/kg iv once every week × 4, in mmHg/s
  −dp/dt: −2141 ± 596
[3]; [7]
  LVPmax as % of the normal value: 58%
  LVPmin as % of the normal value: 37%
  dp/dt as % of the normal value: 43%
  −dp/dt as % of the normal value: 47%
[4]
  Heart weight/body weight: 0.0031 ± 0.0001^
  heart circumference: 30.6 ± 0.1 mm
  thickness of left ventricular wall: 1.73 ± 0.16^ mm
[5]
  survival rate: 15%

B1: rhNRG-1 β: Recombinant human neuregulin fragment of 61 amino acid (SEQ ID NO:4), 3 disulfide bonds, expressed in E. coli (protein, listed as Homo sapiens)
chain: SHLVKCAEKEKTFCVNGGECFMVKDLSNPSRYLCKCPNEFTGDRCQNYVMASFYKAEELYQ
modifications: Human neuregulin beta-2 fragment
Rhesus; 7.5, 15, 75 μg/kg/d iv 3 weeks
  bone marrow smear: No significant toxic pathologic changes
  echocardiogram: no significant abnormality in echocardiogram
  fundus examination: No abnormal changes
  hematological, biochemistry examination, urine and fecal testing: no significant toxicological changes
  organ weight: No abnormal changes in organ weight
Rhesus; all animals, prior to and after the drug administration
  body temperature: no significant changes of body temperature
Rhesus; drug taken groups
  site of drug injection: mild paleness, hardening of regional skin and vessels
Rhesus; each drug taken group, 1 week after the beginning of drug administration
  general symptoms, gastrointestinal: Vomiting, nausea and salivation occurred in part of the animals
Rhesus; 3-week of drug administration
  heart rate in conscious animals (electrocardiography): significant reduction of heart rate
Rhesus; 10-day of drug administration
  heart rate in conscious animals (electrocardiography): no significant deceleration of heart rate
Rhesus; high dosage 75 μg/kg/d iv 3 weeks
  myocardium pathohistology: could cause vacuole in the cytoplasma of myocardium
Rhesus; high dosage group 75 μg/kg/d
  food ingestion: reduced significantly
Rhesus; high dosage group 75 μg/kg/d, self-comparison prior to and after drug
  body weight: lowered markedly
Rhesus; high dosage group, 3 weeks after drug withdrawal
  recovery of hydrocephalus: did not recover entirely
Rhesus; iv daily 3 weeks, 3-week's convalescent period
  dosage level that did not cause pericardial effusion and hydrocephalus: 7.5 µg/kg/day

From US9555076B2, “Neuregulin based methods and compositions for treating cardiovascular diseases” (Zensun (Shanghai) Science & Technology, Co., Ltd., priority 2002, dated 2017)
